Experimental data as given in patent publication US20230265198A1 (TWIST BIOSCIENCE, published 2023).

Target: T1, neuropilin-1 (NRP1) on HEK293 cells overexpressing NRP1 (UniProt O14786 22-923, limits assumed)
T1 construct: whole, on cells
Assay: flow cytometry, HEK293-NRP1 vs HEK293

| Binder | 100 nM FACS (MFI Ratio) |
| --- | --- |
| NRP1-124 (antibody, IgG2, V domains shown) VH: EVQLLESGGGLVQPGGSLRLSCAASGFDFSDYEMSWVRQAPGKGLEWVSRISVAGRRTAYADSVKGRFTISRDNSKNTLYLQMNSLRAEDTAVYYCAKGRRKLRATRFDYWGQGTLVTVSS VL: DIQMTQSPSSLSASVGDRVTITCSGDKLRNKYASWYQQKPGKAPKLLIYETSKLASGVPSRFSGSGSGTDFTLTISSLQPEDFATYYCQQSFSVPAFGQGTKVEIK | 1200 |
| NRP1-109 (VHH) VHH: EVQLVESGGGLVQPGGSLRLSCAASGRTSRSYDMGWFRQAPGKEREFVASIDQSGESTAYADSVKGRFTISADNSKNTAYLQMNSLKPEDTAVYYCARADYYGSGSYFDYWGQGTLVTVSS | 2.1 |
| NRP1-112 (VHH) VHH: EVQLVESGGGLVQPGGSLRLSCAASGNIFINNAMGWFRQAPGKERELVAAITSSSGRRWYADSVKGRFTISADNSKNTAYLQMNSLKPEDTAVYYCAAYQRGWGDWGQGTLVTVSS | 0.7 |
| NRP1-108 (VHH) VHH: EVQLVESGGGLVQPGGSLRLSCAASGNIPPINAMGWFRQAPGKEREWVATITSGGSTTYADSVKGRFTISADNSKNTAYLQMNSLKPEDTAVYYCARDRYFYDTSGNQRSSWFDPWGQGTLVTVSS | 0.9 |
| NRP1-110 (VHH) VHH: EVQLVESGGGLVQPGGSLRLSCAASGRTFSNYSMGWFRQAPGKEREFVASIWWTFDAPYYADSVKGRFTISADNSKNTAYLQMNSLKPEDTAVYYCAKWDGLGTLWGQGTLVTVSS | 3.3 |
| NRP1-120 (antibody, IgG2, V domains shown) VH: EVQLLESGGGLVQPGGSLRLSCAASGFTFKSYGMHWVRQAPGKGLEWVSEISPSGKKKYYADSVKGRFTISRDNSKNTLYLQMNSLRAEDTAVYYCAAPNDQSAAFDYWGQGTLVTVSS VL: DIQMTQSPSSLSASVGDRVTITCKASDHIGKFLTWYQQKPGKAPKLLIYPKHNRPPGVPSRFSGSGSGTDFTLTISSLQPEDFATYYCQQSYDNPLTFGQGTKVEIK | 5.2 |
| NRP1-127 (antibody, IgG2, V domains shown) VH: EVQLLESGGGLVQPGGSLRLSCAASGFTFSNYGVSWVRQAPGKGLEWVSYISSSGSSTYYADSVKGRFTISRDNSKNTLYLQMNSLRAEDTAVYYCAKGARRFDYWGQGTLVTVSS VL: DIQMTQSPSSLSASVGDRVTITCRASHNINSYLNWYQQKPGKAPKLLIYGKKNRPSGVPSRFSGSGSGTDFTLTISSLQPEDFATYYCGQSYRYPLTFGQGTKVEIK | 2.1 |
| NRP1-111 (VHH) VHH: EVQLVESGGGLVQPGGSLRLSCAASGIAFRIRTMGWFRQAPGKERELVAAITSSSGRRWYADSVKGRFTISADNSKNTAYLQMNSLKPEDTAVYYCAARRIVNVEGAYRDWGQGTLVTVSS | 0.7 |
| NRP1-113 (VHH) VHH: EVQLVESGGGLVQPGGSLRLSCAASGHTFRGDVMGWFRQAPGKEREFVASISGSGTRTLYADSVKGRFTISADNSKNTAYLQMNSLKPEDTAVYYCARDVEGGWYGLSYGMDVWGQGTLVTVSS | 0.4 |
| NRP1-10 (VHH) VHH: EVQLVESGGGLVQPGGSLRLSCAASGFTFSMWPMGWFRQAPGKEREFVARITGGGSTIWSRGDTYYADSVKGRFTISADNSKNTAYLQMNSLKPEDTAVYYCARADYYDSSAFDYWGQGTLVTVSS | 19.6 |
| NRP1-107 (VHH) VHH: EVQLVESGGGLVQPGGSLRLSCAASGRTFSNSGMGWFRQAPGKEREFVAAISWNGGTTNYADSVKGRFTISADNSKNTAYLQMNSLKPEDTAVYYCATLGGTVSGSHWSYFYYMDVWGQGTLVTVSS | 2.8 |
